Experimental data from article PMC6208443, “Arabidopsis AGDP1 links H3K9me2 to DNA methylation in heterochromatin” (Nature Communications, 2018).

Tests used:
[1] = target: RsAGDP1 AGD12 (residues 26–180) (Raphanus sativus); experiment: ITC; Microcal PEAQ-ITC, 25 °C; protein at 0.1 mM, peptide at 1.0–1.5 mM in the same buffer; fit with Origin 7.0
[2] = target: full-length AtAGDP1 (Arabidopsis thaliana) (UniProt Q500V5); experiment: as above
full-length AtAGDP1 (Arabidopsis thaliana), sequence (Q500V5 whole entry): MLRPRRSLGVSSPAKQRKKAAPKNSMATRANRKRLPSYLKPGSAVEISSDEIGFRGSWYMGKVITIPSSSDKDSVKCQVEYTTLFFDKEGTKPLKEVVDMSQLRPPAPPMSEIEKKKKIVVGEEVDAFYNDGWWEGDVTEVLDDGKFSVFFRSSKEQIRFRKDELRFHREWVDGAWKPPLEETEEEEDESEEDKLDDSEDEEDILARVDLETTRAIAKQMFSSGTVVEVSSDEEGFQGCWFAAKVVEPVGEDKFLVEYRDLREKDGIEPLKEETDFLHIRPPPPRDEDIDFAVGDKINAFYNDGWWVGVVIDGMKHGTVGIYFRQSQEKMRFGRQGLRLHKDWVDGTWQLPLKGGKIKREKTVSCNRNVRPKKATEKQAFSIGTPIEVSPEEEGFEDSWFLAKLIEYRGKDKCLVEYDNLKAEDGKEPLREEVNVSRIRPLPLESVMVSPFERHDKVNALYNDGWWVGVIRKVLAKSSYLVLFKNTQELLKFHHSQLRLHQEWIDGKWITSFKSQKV

Row | Substance | fold decrease of binding against H3K9me2 [1] | stoichiometry N [2]
1 | H3K4me3K9me2 peptide | 5 fold | 
2 | H3K9me2 peptide (ITC) |  | 3
